B1: Azoarcus group I ribozyme (parent)
chain: GUGCCUUGCGCCGGGAAACCACGCAAGGGAUGGUGUCAAAUUCGGCGAAACCUAAGCGCCCGCCCGGGCGUAUGGCAACGCCGAGCCAAGCUUCGGCGCCUGCGCCGAUGAAGGUGUAGAGACUAGACGGCACCCACCUAAGGCAAACGCUAUGGUGAAGGCAUAGUCCAGGGAGUGGCGAAAGUCACACAAACCGG

The data set covers variants of B1. Kind of data set: reverse-splicing fitness (ratio to wild type); higher = more active; in vitro selection; Mg2+ level not given. Put shortly: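 An in vitro group I ribozyme library with randomized positions was T7-transcribed and gel-purified. In triplicate, 10 pmol RNA in EPPS pH 7.5 was reacted with 50 pmoles of a 30-nt RNA substrate for 1 h at 37 °C across several added MgCl2 levels (1–48 mM), then stopped with EDTA. Products were reverse transcribed from a substrate-complementary primer, PCR-amplified and sequenced (HiSeq 4000). Fitness is a variant's read proportion after selection over that before, normalised to wild type.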
GUGCCUUGCGCCGGGAAACCACGCAAGGGAUGGUGUCAAAUUCGGCGAAACCUAAGCGCCCGCCCGGGCGUAUGGCAACGCGGAGCCAAGCUUCGGCGCCUGCGCCGAUGGAGGUGUAGGGACUAGACGGCACCCACCUAAGGCCAACGCUAUGGUGAAGGCAUAGUCCAGGGAGUGGCGAAAGUCACACAAACCGG [C82G A111G A120G A145C]: the reverse-splicing fitness came out at 0.0157.
As for GUGCCUUGCGCCGGGAAACCACGCAAGGGAUGGUGUCAAAUUCGGCGAAACCUAAGCGCCCGCCCGGGCGUAUGGCAACGCGGAGCCAAGCUUCGGCGCCUGCGCCGAUGGAGGUGUAGCGACUAGACGGCACCCACCUAAGGCAAACGCUAUGGUGAAGGCAUAGUCCAGGGAGCGGCGAAAGUCACACAAACCGG [C82G A111G A120C U176C], the reverse-splicing fitness is 0.045.
Turning to GUGCCUUGCGCCGGGAAACCACGCAAGGGAUGGUGUCAAAUUCGGCGAAACCUAAGCGCCCGCCCGGGCGUAUGGCAACGCGGAGCCAAGCUUCGGCGCCUGCGCCGAUGGAGGUGUAGCGACUAGACGGCACCCACCUAAGGCAAACGCUAUGGUGAAGGCAUAGUCCAGGGAGAGGCGAAAGUCACACAAACCGG [C82G A111G A120C U176A], the reverse-splicing fitness came out at 0.0255.
To GUGCCUUGCGCCGGGAAACCACGCAAGGGAUGGUGUCAAAUUCGGCGAAACCUAAGCGCCCGCCCGGGCGUAUGGCAACGCGGAGCCAAGCUUCGGCGCCUGCGCCGAUGGAGGUGUAGCGACUAGACGGCACCCACCUAAGGCAAACGCUAUGGUGAAGGCAUAGUCCAGGGAGGGGCGAAAGUCACACAAACCGG [C82G A111G A120C U176G] belongs 0.011; to GUGCCUUGCGCCGGGAAACCACGCAAGGGAUGGUGUCAAAUUCGGCGAAACCUAAGCGCCCGCCCGGGCGUAUGGCAACGCGGAGCCAAGCUUCGGCGCCUGCGCCGAUGGAGGUGUAGCGACUAGACGGCACCCACCUAAGGCAAACGCUAUGGUGAAGGCAUAGUCAAGGGAGGGGCGAAAGUCACACAAACCGG [C82G A111G A120C C169A U176G], 0.00532.
For the variant GUGCCUUGCGCCGGGAAACCACGCAAGGGAUGGUGUCAAAUUCGGCGAAACCUAAGCGCCCGCCCGGGCGUAUGGCAACGCGGAGCCAAGCUUCGGCGCCUGCGCCGAUGGAGGUGUAGCGACUAGACGGCACCCACCUAAGGCAAACGCUAUGGUGAAGGCAUAGUCAAGGGAGAGGCGAAAGUCACACAAACCGG [C82G A111G A120C C169A U176A], the reverse-splicing fitness worked out at 0.017.
In the case of GUGCCUUGCGCCGGGAAACCACGCAAGGGAUGGUGUCAAAUUCGGCGAAACCUAAGCGCCCGCCCGGGCGUAUGGCAACGCGGAGCCAAGCUUCGGCGCCUGCGCCGAUGGAGGUGUAGCGACUAGACGGCACCCACCUAAGGCAAACGCUAUGGUGAAGGCAUAGUCAAGGGAGCGGCGAAAGUCACACAAACCGG [C82G A111G A120C C169A U176C] it was 0.0162; in that of GUGCCUUGCGCCGGGAAACCACGCAAGGGAUGGUGUCAAAUUCGGCGAAACCUAAGCGCCCGCCCGGGCGUAUGGCAACGCGGAGCCAAGCUUCGGCGCCUGCGCCGAUGGAGGUGUAGGGACUAGACGGCACCCACCUAAGGCCAACGAUAUGGUGAAGGCAUAGUCAAGGGAGUGGCGAAAGUCACACAAACCGG [C82G A111G A120G A145C C150A C169A], 0.00854.
In the case of GUGCCUUGCGCCGGGAAACCACGCAAGGGAUGGUGUCAAAUUCGGCGAAACCUAAGCGCCCGCCCGGGCGUAUGGCAACGCGGAGCCAAGCUUCGGCGCCUGCGCCGAUGGAGGUGUAGCGACUAGACGGCACCCACCUAAGGCAAACGCUAUGGUGAAGGCAUAGUCAAGGGAGUGGCGAAAGUCACACAAACCGG [C82G A111G A120C C169A] it was 0.0101.
To GUGCCUUGCGCCGGGAAACCACGCAAGGGAUGGUGUCAAAUUCGGCGAAACCUAAGCGCCCGCCCGGGCGUAUGGCAACGCGGAGCCAAGCUUCGGCGCCUGCGCCGAUGGAGGUGUAGCGACUAGACGGCACCCACCUAAGGCAAACGCUAUGGUGAAGGCAUAGUCGAGGGAGUGGCGAAAGUCACACAAACCGG [C82G A111G A120C C169G] belongs 0.00841.
Regarding GUGCCUUGCGCCGGGAAACCACGCAAGGGAUGGUGUCAAAUUCGGCGAAACCUAAGCGCCCGCCCGGGCGUAUGGCAACGCGGAGCCAAGCUUCGGCGCCUGCGCCGAUGGAGGUGUAGCGACUAGACGGCACCCACCUAAGGCAAACGCUAUGGUGAAGGCAUAGUCUAGGGAGUGGCGAAAGUCACACAAACCGG [C82G A111G A120C C169U], the reverse-splicing fitness was 0.0179.
To GUGCCUUGCGCCGGGAAACCACGCAAGGGAUGGUGUCAAAUUCGGCGAAACCUAAGCGCCCGCCCGGGCGUAUGGCAACGCGGAGCCAAGCUUCGGCGCCUGCGCCGAUGGAGGUGUAGCGACUAGACGGCACCCACCUAAGGCAAACGUUAUGGUGAAGGCAUAGUCGAGGGAGGGGCGAAAGUCACACAAACCGG [C82G A111G A120C C150U C169G U176G] belongs 0.00572; to GUGCCUUGCGCCGGGAAACCACGCAAGGGAUGGUGUCAAAUUCGGCGAAACCUAAGCGCCCGCCCGGGCGUAUGGCAACGCGGAGCCAAGCUUCGGCGCCUGCGCCGAUGGAGGUGUAGCGACUAGACGGCACCCACCUAAGGCAAACGUUAUGGUGAAGGCAUAGUCGAGGGAGCGGCGAAAGUCACACAAACCGG [C82G A111G A120C C150U C169G U176C], 0.0206.
In the case of GUGCCUUGCGCCGGGAAACCACGCAAGGGAUGGUGUCAAAUUCGGCGAAACCUAAGCGCCCGCCCGGGCGUAUGGCAACGCGGAGCCAAGCUUCGGCGCCUGCGCCGAUGGAGGUGUAGCGACUAGACGGCACCCACCUAAGGCAAACGUUAUGGUGAAGGCAUAGUCGAGGGAGAGGCGAAAGUCACACAAACCGG [C82G A111G A120C C150U C169G U176A] it was 0.0185; in that of GUGCCUUGCGCCGGGAAACCACGCAAGGGAUGGUGUCAAAUUCGGCGAAACCUAAGCGCCCGCCCGGGCGUAUGGCAACGCGGAGCCAAGCUUCGGCGCCUGCGCCGAUGGAGGUGUAGGGACUAGACGGCACCCACCUAAGGCCAACGAUAUGGUGAAGGCAUAGUCAAGGGAGAGGCGAAAGUCACACAAACCGG [C82G A111G A120G A145C C150A C169A U176A], 0.0139.
